Columns and labels:
[1] = target: T1, IGFBP-2 (UniProt P18065 36-325); assay: SPR; IGF binding protein or Fc fusion amine-coupled to a CM4 chip, growth factor as analyte; Biacore T100 or T200, HBS-P, BSA (0.2 mg/ml) or NaCl (0.65 M final) to reduce non-specific binding, 25 °C; 1:1 binding analysis; details: both partners purified
T1 construct: source: bought (commercially available, carrier-free)
T1 sequence (looked up): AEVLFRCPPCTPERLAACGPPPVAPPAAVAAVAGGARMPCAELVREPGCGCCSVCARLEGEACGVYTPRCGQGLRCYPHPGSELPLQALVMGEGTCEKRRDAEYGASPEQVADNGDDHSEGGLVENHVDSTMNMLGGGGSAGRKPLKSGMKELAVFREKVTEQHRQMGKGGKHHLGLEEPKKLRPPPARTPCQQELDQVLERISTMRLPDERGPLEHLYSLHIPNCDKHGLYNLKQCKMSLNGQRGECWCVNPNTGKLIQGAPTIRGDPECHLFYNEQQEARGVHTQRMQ

[2] = target: T2, IGFBP-3 (UniProt P17936 28-291); assay: as above; details: both partners purified
T2 construct: source: bought (commercially available, carrier-free)

[3] = target: T3, Chimera A; assay: as above; details: both partners purified
T3 construct: signal peptide derived from IGFBP-2; VEGF receptor 1 domain 2, first part of VEGF-trap; VEGF receptor 2 domain 3, second part of VEGF-trap; VEGF-trap inserted between the IGFBP-3 and the Fc domain; also called chA; BP3-VEGF-trap-Fc; source: 293 T cells, transfected; conditioned medium purified by proteinA Sepharose; not shown: Fc (IgG1), C-terminal, kept

[4] = target: T4, 56662 (UniProt P17936-1 28-291); assay: as above; details: both partners purified
T4 construct: the secretory signal peptide was derived from IGFBP-2; Fc portion of IgG1 added to the C terminus of IGFBP-3; called an Fc dimer; Probably the mature IGFBP-3 after removal of the IGFBP-2 signal peptide; also called IGFBP-3-Fc; BP3-Fc (unmodified IGFBP-3 Fc construct); source: 293 T cells, transfected; conditioned medium purified by proteinA Sepharose; not shown: Fc (IgG1), C-terminal, kept

[5] = target: T5, IGFBP-7 (UniProt Q16270 27-282); assay: as above; details: both partners purified
T5 construct: source: bought (commercially available, carrier-free)
T5 sequence (looked up): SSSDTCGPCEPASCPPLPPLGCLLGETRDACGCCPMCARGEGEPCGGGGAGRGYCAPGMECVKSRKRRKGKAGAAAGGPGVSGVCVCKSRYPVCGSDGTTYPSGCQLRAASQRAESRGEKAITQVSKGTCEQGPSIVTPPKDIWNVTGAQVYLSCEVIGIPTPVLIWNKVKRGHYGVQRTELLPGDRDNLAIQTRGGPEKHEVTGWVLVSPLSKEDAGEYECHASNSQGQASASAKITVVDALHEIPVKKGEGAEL

[6] = target: T6, neuregulin-1 (UniProt Q02297 20-241); assay: SPR; growth factor immobilised on a CM4 chip instead of the binding protein (asterisk in Table 1), binding protein or Fc fusion as analyte; HBS-P, 25 °C; regeneration with 4 M MgCl2 then 5 M guanidinium chloride; 1:1 binding analysis; details: both partners purified
[7] = target: T7, Basic FGF (UniProt P09038 143-288); assay: as above; details: both partners purified
T7 construct: basic fibroblast growth factor (FGF2), commercial growth factor; also called bFGF

[8] = target: T8, hepatocyte growth factor (UniProt P14210 32-728); assay: as above; details: both partners purified
T8 construct: hepatocyte growth factor, commercial; Mature HGF is a two-chain (alpha/beta) product of one precursor; the preparation is said to hold both processed and unprocessed forms; also called HGF; source: expressed in insect cells

[9] = target: T9, PDGF BB (UniProt P01127 82-190); assay: as above; details: both partners purified
T9 construct: platelet-derived growth factor B chain; Homodimer of B chains by its name

[10] = target: T6, neuregulin-1; assay: cell-based or functional assay
[11] = target: T7, Basic FGF; assay: cell-based or functional assay
[12] = target: T8, hepatocyte growth factor; assay: cell-based or functional assay
[13] = target: T9, PDGF BB; assay: cell-based or functional assay
[14] = target: T10, insulin-like growth factor-1 (UniProt P05019 49-118); assay: cell-based or functional assay
[15] = target: T10, insulin-like growth factor-1; assay: SPR; IGF binding protein or Fc fusion amine-coupled to a CM4 chip, growth factor as analyte; Biacore T100 or T200, HBS-P, BSA (0.2 mg/ml) or NaCl (0.65 M final) to reduce non-specific binding, 25 °C; 1:1 binding analysis; details: both partners purified
[16] = target: T11, insulin-like growth factor-2 (UniProt P01344 25-91); assay: as above; details: both partners purified
T11 construct: insulin-like growth factor 2, commercial growth factor; also called IGF2; IGF-2

[17] = target: VEGF-B (UniProt P49765 22-207); assay: SPR; growth factor immobilised on a CM4 chip instead of the binding protein (asterisk in Table 1), binding protein or Fc fusion as analyte; HBS-P, 25 °C; regeneration with 4 M MgCl2 then 5 M guanidinium chloride; 1:1 binding analysis; details: both partners purified
[18] = target: T3, Chimera A; assay: as above; details: both partners purified
Target sequence in this assay (Q02297 20-241, stated change not applied): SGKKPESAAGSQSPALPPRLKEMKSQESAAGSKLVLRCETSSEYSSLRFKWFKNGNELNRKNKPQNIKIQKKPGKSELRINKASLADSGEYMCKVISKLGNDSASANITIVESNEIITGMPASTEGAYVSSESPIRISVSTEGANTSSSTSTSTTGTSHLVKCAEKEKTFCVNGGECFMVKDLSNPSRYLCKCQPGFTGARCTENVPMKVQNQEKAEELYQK

[19] = target: T4, 56662; assay: as above; details: both partners purified

T7 sequence (P09038 143-288): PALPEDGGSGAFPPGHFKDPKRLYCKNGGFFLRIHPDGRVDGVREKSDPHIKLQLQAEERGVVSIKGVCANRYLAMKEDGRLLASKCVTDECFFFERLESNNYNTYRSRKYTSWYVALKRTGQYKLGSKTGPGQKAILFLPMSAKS
T10 sequence (P05019 49-118): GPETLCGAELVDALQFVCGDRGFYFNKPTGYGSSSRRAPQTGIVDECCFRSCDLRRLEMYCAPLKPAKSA
T6 sequence (Q02297 20-241): as the sequence (Q02297 20-241, stated change not applied) above
T8 sequence (P14210 32-728): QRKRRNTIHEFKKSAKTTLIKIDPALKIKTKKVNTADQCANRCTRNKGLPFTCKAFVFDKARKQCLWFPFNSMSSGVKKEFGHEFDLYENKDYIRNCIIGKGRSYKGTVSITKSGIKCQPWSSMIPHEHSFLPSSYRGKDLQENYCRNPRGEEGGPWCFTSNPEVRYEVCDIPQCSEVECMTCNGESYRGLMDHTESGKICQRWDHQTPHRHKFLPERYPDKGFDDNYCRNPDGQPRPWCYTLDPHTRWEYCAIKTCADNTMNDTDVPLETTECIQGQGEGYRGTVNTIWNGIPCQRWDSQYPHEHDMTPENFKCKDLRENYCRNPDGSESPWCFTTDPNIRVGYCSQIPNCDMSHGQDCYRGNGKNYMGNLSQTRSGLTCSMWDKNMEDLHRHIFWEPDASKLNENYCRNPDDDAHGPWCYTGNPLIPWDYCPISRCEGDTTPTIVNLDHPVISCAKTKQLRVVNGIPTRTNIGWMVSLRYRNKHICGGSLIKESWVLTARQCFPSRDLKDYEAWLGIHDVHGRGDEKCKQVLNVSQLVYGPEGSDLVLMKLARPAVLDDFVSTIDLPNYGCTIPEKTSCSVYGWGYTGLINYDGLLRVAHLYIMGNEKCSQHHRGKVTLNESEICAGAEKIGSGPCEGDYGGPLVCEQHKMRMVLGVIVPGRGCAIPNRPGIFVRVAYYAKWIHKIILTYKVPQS
T9 sequence (P01127 82-190): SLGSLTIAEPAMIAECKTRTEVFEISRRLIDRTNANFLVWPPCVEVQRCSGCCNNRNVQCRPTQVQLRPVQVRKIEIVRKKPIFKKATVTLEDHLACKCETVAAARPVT
T11 sequence (P01344 25-91): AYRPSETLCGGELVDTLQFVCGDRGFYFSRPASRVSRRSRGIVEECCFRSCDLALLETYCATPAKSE

B1: VEGF-B (ligand)
chain: PVSQPDAPGHQRKVVSWIDVYTRATCQPREVVVPLTVELMGTVAKQLVPSCVTVQRCGGCCPDDGLECVPTGQHQVRMQILMIRYPSSQLGEMSLEEHSQCECRPKKKDSAVKPDSPRPLCPRCTQHHQRPDPRTCRCRCRRRSFLRCQGRGLELNPDTCRCRKLRR
modifications: Disulfide-linked homodimer. R&D 751-VE taken as the VEGF-B167 isoform; isoform and limits are not printed.
Which results are given for B1?
Kd [1]: 2.82 nM; Kd [2]: 16.1 nM; Kd [3]: 0.49 nM; Kd [4]: 14.3 nM; Kd [5]: 9.88 nM

B2: D3 (Fc fusion)
chain: GASSAGLGPVVRCEPCDARALAQCAPPPAVCAELVREPGCGCCLTCALSEGQPCGIYTERCGSGLRCQPSPDEARPLQALLDGRGLCVNASAVSRPAPPAPGNASESEEDRSAGSVESPSVSSTHRVSDPKFHPKGHAKVDYESQSTDTQNFSSESKRETEYGPCRREMEDTLNHLKFLNVLSPRGVHIPNCDKKGFYKKKQCRPSKGRKRGFCWCVDKYGQPLPGYTTKGKEDVHCYSMQSK
How did the Kd [6] turn out when B2 was run?
Its Kd is 2.62 nM.

And the Kd [7]?
Its Kd is 3.29 nM.

What about the Kd [8] of the same binder?
The Kd was 2.63 nM.

And the Kd [9]?
The Kd was 5.29 nM.

What about the “IC50 of inhibition of NRG-stimulated proliferation, Hep3B cells” value [10] of the same binder?
Its value is 43 nM.

What about the “IC50 of inhibition of NRG-stimulated proliferation, MCF-7 cells” value [10] of the same binder?
Its value is 112 nM.

And the “IC50 of inhibition of bFGF-stimulated proliferation, HUVEC” value [11]?
The value was 39 nM.

And the “IC50 of inhibition of bFGF-stimulated proliferation, Hep3B cells” value [11]?
Its value is 59 nM.

And the “IC50 of inhibition of bFGF-stimulated proliferation, MCF-7 cells” value [11]?
The value was 26 nM.

And the “IC50 of inhibition of HGF-stimulated proliferation, HUVEC” value [12]?
Its value is 56 nM.

And the “IC50 of inhibition of HGF-stimulated proliferation, Hep3B cells” value [12]?
The value was 58 nM.

And the “IC50 of inhibition of PDGF BB-stimulated proliferation, 3T3 cells” value [13]?
Its value is 30 nM.

What about the “IC50 of inhibition of IGF1-stimulated proliferation, HUVEC” value [14] of the same binder?
The value was 7.45 nM.

And the “IC50 of inhibition of IGF1-stimulated proliferation, Hep3B cells” value [14]?
Its value is 21 nM.

What about the “IC50 of inhibition of IGF1-stimulated proliferation, MCF-7 cells” value [14] of the same binder?
The value was 29 nM.

B3: D3 (Fc fusion)
chain: B2 chain
modifications: Secreted Fc-fusion dimer; Fc omitted. Deletions 121-126, 166-174 and 180-185 are in 56662 precursor numbering (UniProt = construct + 2). The IGFBP-2 signal peptide is removed.
Which Kd [15] does the source give for B3 here?
Its Kd is 0.51 nM.

And the Kd [16]?
Its Kd is 0.22 nM.

B4: D3 (Fc fusion)
chain: B2 chain
modifications: Secreted Fc-fusion dimer; Fc omitted. Deletions 121-126, 166-174 and 180-185 are in 56662 precursor numbering (UniProt = construct + 2). The IGFBP-2 signal peptide is removed. / Disulfide-linked …
How did the Kd [17] turn out when B4 was run?
Its Kd is 19.8 nM.

B5: neuregulin-1 (ligand)
chain: SERKEGRGKGKGKKKERGSGKKPESAAGSQSPALPPRLKEMKSQESAAGSKLVLRCETSSEYSSLRFKWFKNGNELNRKNKPQNIKIQKKPGKSELRINKASLADSGEYMCKVISKLGNDSASANITIVESNEIITGMPASTEGAYVSSESPIRISVSTEGANTSSSTSTSTTGTSHLVKCAEKEKTFCVNGGECFMVKDLSNPSRYLCKCPNEFTGDRCQNYVMASFYKHLGIEFMEAEELYQK
modifications: R&D 377-HB, neuregulin extracellular domain, taken as NRG1-beta1 Ser2-Lys246; the paper prints only the catalogue number and 'extracellular domain'.
What does the source list for B5?
Kd [2]: 2.09 nM; Kd [3]: 3.21 nM; Kd [4]: 4.46 nM; Kd [5]: 1600 nM; Kd [18]: 1.71 nM; Kd [19]: 4.66 nM
